The results in this text go back to US20220332804A1 (CSL INNOVATION, published 2022).

One test concerns the target T1, human C2 K443A (human, UniProt P06681 21-752).
T1 sequence: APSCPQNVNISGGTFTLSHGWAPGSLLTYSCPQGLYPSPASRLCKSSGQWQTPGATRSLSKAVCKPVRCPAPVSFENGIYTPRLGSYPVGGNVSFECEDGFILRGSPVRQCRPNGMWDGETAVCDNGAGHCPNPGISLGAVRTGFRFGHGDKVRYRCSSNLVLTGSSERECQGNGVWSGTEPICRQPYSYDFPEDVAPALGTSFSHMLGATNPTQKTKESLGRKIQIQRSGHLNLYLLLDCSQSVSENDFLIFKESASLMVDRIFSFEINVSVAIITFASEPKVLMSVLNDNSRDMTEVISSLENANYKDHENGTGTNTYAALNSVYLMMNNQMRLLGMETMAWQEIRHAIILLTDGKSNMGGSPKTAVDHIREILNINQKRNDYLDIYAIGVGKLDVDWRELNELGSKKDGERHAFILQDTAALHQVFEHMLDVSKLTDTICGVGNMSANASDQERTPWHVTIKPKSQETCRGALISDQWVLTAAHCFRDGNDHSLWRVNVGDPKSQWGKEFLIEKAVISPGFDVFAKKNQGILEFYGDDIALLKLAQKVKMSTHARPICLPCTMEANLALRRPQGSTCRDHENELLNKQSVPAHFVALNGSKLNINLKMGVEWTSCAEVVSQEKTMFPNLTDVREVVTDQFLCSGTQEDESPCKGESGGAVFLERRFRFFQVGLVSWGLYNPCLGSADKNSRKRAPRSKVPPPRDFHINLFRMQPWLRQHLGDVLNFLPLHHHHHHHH
Briefly: SPR, mAb captured, C2 mutant analyte. (In general: Surface plasmon resonance follows binding to a sensor surface in real time, without labels.)

The target of a further test is T2, human C2 A436S (human, UniProt P06681 21-752).
T2 sequence: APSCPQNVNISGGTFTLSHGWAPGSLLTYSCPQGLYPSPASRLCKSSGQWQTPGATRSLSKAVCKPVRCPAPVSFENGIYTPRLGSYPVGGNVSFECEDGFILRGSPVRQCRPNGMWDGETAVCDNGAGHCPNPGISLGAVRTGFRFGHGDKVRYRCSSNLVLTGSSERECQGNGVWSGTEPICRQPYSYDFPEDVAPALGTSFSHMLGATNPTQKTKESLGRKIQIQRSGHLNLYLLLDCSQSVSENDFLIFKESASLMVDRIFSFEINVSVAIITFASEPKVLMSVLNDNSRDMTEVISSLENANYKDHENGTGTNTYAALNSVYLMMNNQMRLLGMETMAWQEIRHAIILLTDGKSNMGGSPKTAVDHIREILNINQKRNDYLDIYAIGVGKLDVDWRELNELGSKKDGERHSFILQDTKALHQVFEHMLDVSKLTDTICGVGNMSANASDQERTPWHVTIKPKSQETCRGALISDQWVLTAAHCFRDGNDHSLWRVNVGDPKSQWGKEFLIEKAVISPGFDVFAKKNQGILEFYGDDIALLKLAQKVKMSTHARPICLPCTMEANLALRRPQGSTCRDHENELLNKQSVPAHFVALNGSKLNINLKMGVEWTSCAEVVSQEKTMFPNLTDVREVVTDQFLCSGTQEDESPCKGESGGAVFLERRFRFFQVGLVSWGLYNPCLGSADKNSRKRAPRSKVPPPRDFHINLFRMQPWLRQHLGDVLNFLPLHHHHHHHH
As to the kind of experiment: SPR, mAb captured, C2 mutant analyte.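 Further: Anti-C2 mAbs captured on goat anti-human IgG Biacore CM5 chips, alanine or serine C2 surface mutants flowed over at 37 °C, double-referenced sensorgrams fitted to a 1:1 binding model.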

The target of a further test is T3, human complement C2 (human, UniProt P06681 21-752).
T3 sequence: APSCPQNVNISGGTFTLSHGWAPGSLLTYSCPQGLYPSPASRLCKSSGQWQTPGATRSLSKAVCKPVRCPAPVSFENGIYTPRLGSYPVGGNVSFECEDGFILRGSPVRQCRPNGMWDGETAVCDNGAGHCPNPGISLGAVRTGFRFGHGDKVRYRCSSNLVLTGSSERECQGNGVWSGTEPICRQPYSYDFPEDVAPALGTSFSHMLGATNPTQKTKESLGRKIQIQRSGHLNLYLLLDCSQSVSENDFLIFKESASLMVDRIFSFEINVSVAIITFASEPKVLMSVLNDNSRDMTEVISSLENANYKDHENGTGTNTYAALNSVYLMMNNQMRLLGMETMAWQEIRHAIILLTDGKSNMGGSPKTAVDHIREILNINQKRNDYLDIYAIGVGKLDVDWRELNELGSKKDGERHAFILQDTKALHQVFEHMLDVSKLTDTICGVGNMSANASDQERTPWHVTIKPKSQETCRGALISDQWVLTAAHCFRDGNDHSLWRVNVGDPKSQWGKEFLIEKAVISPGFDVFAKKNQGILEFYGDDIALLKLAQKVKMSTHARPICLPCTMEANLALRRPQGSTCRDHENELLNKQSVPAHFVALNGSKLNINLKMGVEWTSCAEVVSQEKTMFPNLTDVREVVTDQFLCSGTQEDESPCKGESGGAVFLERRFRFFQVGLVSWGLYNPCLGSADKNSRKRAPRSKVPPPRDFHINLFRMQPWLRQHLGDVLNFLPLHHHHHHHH
Briefly: cell-based or functional assay.

The target in a further test is T4, human FcRn/β2m (human, UniProt P55899 24-297; P61769 21-119).
T4 construct: Soluble FcRn/β2m injected as analyte over immobilised antibody; also called neonatal Fc receptor
T4 sequence (P55899 24-297 limits assumed, chain 1 of 2): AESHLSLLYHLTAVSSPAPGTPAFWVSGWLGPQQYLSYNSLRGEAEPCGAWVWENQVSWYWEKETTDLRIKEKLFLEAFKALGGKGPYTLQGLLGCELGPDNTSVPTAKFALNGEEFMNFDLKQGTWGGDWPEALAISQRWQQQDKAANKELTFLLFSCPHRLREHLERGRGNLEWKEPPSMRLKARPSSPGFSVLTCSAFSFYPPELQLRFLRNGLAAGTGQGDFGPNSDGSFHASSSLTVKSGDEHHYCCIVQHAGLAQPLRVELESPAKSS
T4 sequence (P61769 21-119 limits assumed, chain 2 of 2): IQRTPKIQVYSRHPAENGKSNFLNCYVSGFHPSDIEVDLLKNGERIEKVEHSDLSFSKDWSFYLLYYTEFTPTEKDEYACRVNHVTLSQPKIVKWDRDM
Briefly: SPR, antibody immobilised, FcRn/β2m analyte, pH 6.0; pH 6.0.

Protocol for human FcRn/β2m: Anti-C2 mAbs (1 μg/mL at pH 5) were immobilized on a carboxylmethyldextran (CM5) sensorchip surface using standard EDC/NHS chemistry. Human and Cyno FcRn/β2m (40 μM) were prepared in running buffer (10 mM HEPES, 150 mM NaCl, 10 mM MES adjusted to either pH 6 or pH 7.3) and injected on the immobilized anti-C2 surface at concentrations ranging from 0.078 to 40 μM, prepared in two-fold dilutions in running buffer. Association and dissociation phases were monitored for 180 and 600 seconds, respectively. […] Double referenced sensorgrams were fitted to either a 1:1 kinetic model (pH 6), including a term for mass transport limitation or to a 1:1 steady state model (pH 7.3) where responses at the end of the association phase were plotted against respective concentrations.
Binding to both human and cynomolgus monkey FcRn was tested using the SPR methods described above.

B1: RF16-214 (antibody, V domains shown)
VH: EVQLLESGGGLVQPGGSLRLSCAASGFTFSWYQMMWVRQAPGKGLEWVSRIYPSGGGTAYADSVKGRFTISRDNSKNTLYLQMNSLRAEDTAVYYCARDAGYGDNWGQGTLVTVSS
VL: QSALTQPPSVSVSPGQTASITCSGDKLGEKYASWYQQKAGQSPVMVIYQDRKRPSGIPERFSGSNSGNTATLTISGTQAMDEADYYCQAWDTRAVVFGGGTKLTVLG
As a reminder, the Kd is the equilibrium constant for the complex coming apart. A low value points to tighter binding. For B1, the binding result with human C2 K443A was “no binding”. In the test with human C2 A436S, this molecule yielded a Kd of 31.2 nM.

B2: RF16-226 (antibody)
heavy: not shown
light: SYELTQPPSVSVSPGQTARITCSGDALTSKYVAWYQQKSGLAPLLVIYEDTRRPSGIPAKFSGSSSGSVATLTISGAHGDDEADYYCYSTDASGHQRVFGGGTKLTVLSQPKAAPSVTLFPPSSEELQANKATLVCLISDFYPGAVTVAWKADGSPVKAGVETTKPSKQSNNKYAASSYLSLTPEQWKSHRSYSCQVTHEGSTVEKTVAPTECS
With B2, the “log IC50 for inhibition of C1s-mediated cleavage of C2 (C2a band on SDS-PAGE, C1s titrated)” value with human complement C2 came out at 50.3 nM.

B3: RF16-226 (antibody, human IgG4 S228P, lambda)
heavy: not shown
light: SYELTQPPSVSVSPGQTARITCSGDALTSKYVAWYQQKSGLAPLLVIYEDTRRPSGIPAKFSGSSSGSVATLTISGAHGDDEADYYCYSTDASGHQRVFGGGTKLTVLSQPKAAPSVTLFPPSSEELQANKATLVCLISDFYPGAVTVAWKADGSPVKAGVETTKPSKQSNNKYAASSYLSLTPEQWKSHRSYSCQVTHEGSTVEKTVAPTECS
notes: pH-dependent anti-C2 antibody from a phage display library; also called WT
For the molecule B3, the Kd in the test with human FcRn/β2m stood at 3800 nM.
